Source: paper PMC5660122 (2017)

Experiments:
Assay in all cases: SPR
[1] = molecular target: humanized E06 BA11
[2] = molecular target: humanized E06 BB11
[3] = molecular target: humanized E06 v2.4-2G
[4] = molecular target: 2V-E06-2V (Squalus acanthias | dogfish)
[5] = molecular target: 2V-BB11-2V (Squalus acanthias)
[6] = molecular target: 2V-BA11-2V (Squalus acanthias)
[7] = molecular target: 2V-BB10-2V (Squalus acanthias)

Binder	Kd [1]	Kd [2]	Kd [3]	Kd [4]	koff [4]	Kd [5]	koff [5]	Kd [6]	koff [6]	Kd [7]	koff [7]
rat serum albumin (natural protein) EAHKSEIAHRFKDLGEQHFKGLVLIAFSQYLQKCPYEEHIKLVQEVTDFAKTCVADENAENCDKSIHTLFGDKLCAIPKLRDNYGELADCCAKQEPERNECFLQHKDDNPNLPPFQRPEAEAMCTSFQENPTSFLGHYLHEVARRHPYFYAPELLYYAEKYNEVLTQCCTESDKAACLTPKLDAVKEKALVAAVRQRMKCSSMQRFGERAFKAWAVARMSQRFPNAEFAEITKLATDVTKINKECCHGDLLECADDRAELAKYMCENQATISSKLQACCDKPVLQKSQCLAEIEHDNIPADLPSIAADFVEDKEVCKNYAEAKDVFLGTFLYEYSRRHPDYSVSLLLRLAKKYEATLEKCCAEGDPPACYGTVLAEFQPLVEEPKNLVKTNCELYEKLGEYGFQNAVLVRYTQKAPQVSTPTLVEAARNLGRVGTKCCTLPEAQRLPCVEDYLSAILNRLCVLHEKTPVSEKVTKCCSGSLVERRPCFSALTVDETYVPKEFKAETFTFHSDICTLPDKEKQIKKQTALAELVKHKPKATEDQLKTVMGDFAQFVDKCCKAADKDNCFATEGPNLVARSKEALA	130 nM	8.29 nM	7.64 nM	7.6 nM	0.00075 s⁻¹	1.49 nM	0.0035 s⁻¹	18.7 nM	0.00054 s⁻¹	–	–
cynomolgus serum albumin (natural protein) DTHKSEVAHRFKDLGEEHFKGLVLVAFSQYLQQCPFEEHVKLVNEVTEFAKTCVADESAENCDKSLHTLFGDKLCTVATLRETYGEMADCCAKQEPERNECFLQHKDDNPNLPPLVRPEVDVMCTAFHDNEATFLKKYLYEVARRHPYFYAPELLFFAARYKAAFAECCQAADKAACLLPKLDELRDEGKASSAKQRLKCASLQKFGDRAFKAWAVARLSQKFPKAEFAEVSKLVTDLTKVHTECCHGDLLECADDRADLAKYMCENQDSISSKLKECCDKPLLEKSHCLAEVENDEMPADLPSLAADYVESKDVCKNYAEAKDVFLGMFLYEYARRHPDYSVMLLLRLAKAYEATLEKCCAAADPHECYAKVFDEFQPLVEEPQNLVKQNCELFEQLGEYKFQNALLVRYTKKVPQVSTPTLVEVSRNLGKVGAKCCKLPEAKRMPCAEDYLSVVLNRLCVLHEKTPVSEKVTKCCTESLVNRRPCFSALELDEAYVPKAFNAETFTFHADMCTLSEKEKQVKKQTALVELVKHKPKATKEQLKGVMDNFAAFVEKCCKADDKEACFAEEGPKFVAASQAALA	–	–	–	0.76 nM	0.000126 s⁻¹	0.64 nM	0.000472 s⁻¹	7.95 nM	9.48e-05 s⁻¹	5.5 nM	0.00439 s⁻¹
